The supplement of paper PMC7125110
± gives the standard error. This sample holds only a part of the variants without activity.

B1: glmS ribozyme (parent)
chain: AUAAAAGCGCCAGAACUACAGAAAUGUAGUUGACGAGGAGGAGGUUUAUCGAAUUUUCGGCGGAUGCCUCCAAA

How the values were obtained:
Details in all cases: with glucosamine-6-phosphate
glucosamine-6-phosphate [1] = variants of: B1; experiment: self-cleavage kobs at 160 uM GlcN6P; higher = faster cleavage; RNA array
Summary of the method: (§1)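 Barcoded ribozyme variants on sequenced MiSeq chips were transcribed in situ by E. coli RNA polymerase and followed at 37 °C through a hybridised Cy3 probe. Glucosamine-6-phosphate at 40 μM to 10 mM in HEPES/KCl/Mg(OAc)2 buffer was flowed in, and tiles were imaged over ~14 h. Signals were normalised to baseline and to non-cleaving reference variants, and per-tile medians were fit to one- or two-exponential decays to give kobs. Weighted Michaelis–Menten fits across concentrations gave kcat and KM.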

glucosamine-6-phosphate [2] = variants of: B1; experiment: self-cleavage kobs at 640 uM GlcN6P; higher = faster cleavage; RNA array
Summary of the method: as §1

glucosamine-6-phosphate [3] = variants of: B1; experiment: self-cleavage kobs at 2500 uM GlcN6P; higher = faster cleavage; RNA array
Summary of the method: as §1

glucosamine-6-phosphate [4] = variants of: B1; experiment: self-cleavage kobs at 10000 uM GlcN6P; higher = faster cleavage; RNA array
Summary of the method: as §1

C34U U54A U69G
self-cleavage kobs at 160 uM GlcN6P (glucosamine-6-phosphate [1]): 0.000126 ± 4.6e-05 s⁻¹ | self-cleavage kobs at 640 uM GlcN6P (glucosamine-6-phosphate [2]): 0.000598 ± 0.0002 s⁻¹ | self-cleavage kobs at 2500 uM GlcN6P (glucosamine-6-phosphate [3]): 0.000128 ± 4.7e-05 s⁻¹ | self-cleavage kobs at 10000 uM GlcN6P (glucosamine-6-phosphate [4]): 0.000125 ± 3.4e-05 s⁻¹

G43A A52U
self-cleavage kobs at 160 uM GlcN6P (glucosamine-6-phosphate [1]): < 1e-05 s⁻¹ | self-cleavage kobs at 640 uM GlcN6P (glucosamine-6-phosphate [2]): < 1e-05 s⁻¹ | self-cleavage kobs at 2500 uM GlcN6P (glucosamine-6-phosphate [3]): < 1e-05 s⁻¹

A33U C58U
self-cleavage kobs at 160 uM GlcN6P (glucosamine-6-phosphate [1]): < 1e-05 s⁻¹ | self-cleavage kobs at 640 uM GlcN6P (glucosamine-6-phosphate [2]): < 1e-05 s⁻¹

G32U C34G G43A
self-cleavage kobs at 160 uM GlcN6P (glucosamine-6-phosphate [1]): < 1e-05 s⁻¹ | self-cleavage kobs at 640 uM GlcN6P (glucosamine-6-phosphate [2]): < 1e-05 s⁻¹ | self-cleavage kobs at 2500 uM GlcN6P (glucosamine-6-phosphate [3]): < 1e-05 s⁻¹

A15C A39U U47A U54G
self-cleavage kobs at 160 uM GlcN6P (glucosamine-6-phosphate [1]): 4.07e-05 ± 1.7e-05 s⁻¹ | self-cleavage kobs at 640 uM GlcN6P (glucosamine-6-phosphate [2]): 0.000184 ± 4.1e-05 s⁻¹ | self-cleavage kobs at 2500 uM GlcN6P (glucosamine-6-phosphate [3]): 0.000635 ± 8.5e-05 s⁻¹

C16G A33C C58G G66A
self-cleavage kobs at 160 uM GlcN6P (glucosamine-6-phosphate [1]): < 1e-05 s⁻¹ | self-cleavage kobs at 2500 uM GlcN6P (glucosamine-6-phosphate [3]): < 1e-05 s⁻¹

C10G G40A C70A
self-cleavage kobs at 160 uM GlcN6P (glucosamine-6-phosphate [1]): < 1e-05 s⁻¹ | self-cleavage kobs at 640 uM GlcN6P (glucosamine-6-phosphate [2]): < 1e-05 s⁻¹ | self-cleavage kobs at 2500 uM GlcN6P (glucosamine-6-phosphate [3]): < 1e-05 s⁻¹ | self-cleavage kobs at 10000 uM GlcN6P (glucosamine-6-phosphate [4]): < 1e-05 s⁻¹

C10U U56A G62A U65A U69G
self-cleavage kobs at 160 uM GlcN6P (glucosamine-6-phosphate [1]): 3.94e-05 ± 1.6e-05 s⁻¹

C10A G13C C16U G51C
self-cleavage kobs at 160 uM GlcN6P (glucosamine-6-phosphate [1]): < 1e-05 s⁻¹

A6U C34A G63C
self-cleavage kobs at 160 uM GlcN6P (glucosamine-6-phosphate [1]): < 1e-05 s⁻¹ | self-cleavage kobs at 640 uM GlcN6P (glucosamine-6-phosphate [2]): < 1e-05 s⁻¹ | self-cleavage kobs at 2500 uM GlcN6P (glucosamine-6-phosphate [3]): < 1e-05 s⁻¹

A6C C8A U31C
self-cleavage kobs at 160 uM GlcN6P (glucosamine-6-phosphate [1]): < 1e-05 s⁻¹ | self-cleavage kobs at 2500 uM GlcN6P (glucosamine-6-phosphate [3]): < 1e-05 s⁻¹

G38U G40U A53C C61G A64G C68A
self-cleavage kobs at 160 uM GlcN6P (glucosamine-6-phosphate [1]): < 1e-05 s⁻¹ | self-cleavage kobs at 640 uM GlcN6P (glucosamine-6-phosphate [2]): < 1e-05 s⁻¹

C10A A14G U69G
self-cleavage kobs at 160 uM GlcN6P (glucosamine-6-phosphate [1]): 0.000148 ± 5.1e-05 s⁻¹ | self-cleavage kobs at 640 uM GlcN6P (glucosamine-6-phosphate [2]): 0.000195 ± 7.6e-05 s⁻¹ | self-cleavage kobs at 2500 uM GlcN6P (glucosamine-6-phosphate [3]): 6.53e-05 ± 2.3e-05 s⁻¹

G35A G43U C68U
self-cleavage kobs at 160 uM GlcN6P (glucosamine-6-phosphate [1]): < 1e-05 s⁻¹ | self-cleavage kobs at 2500 uM GlcN6P (glucosamine-6-phosphate [3]): < 1e-05 s⁻¹

U30G U47G
self-cleavage kobs at 160 uM GlcN6P (glucosamine-6-phosphate [1]): 0.000169 ± 4.9e-05 s⁻¹ | self-cleavage kobs at 640 uM GlcN6P (glucosamine-6-phosphate [2]): 0.00043 ± 0.00012 s⁻¹ | self-cleavage kobs at 2500 uM GlcN6P (glucosamine-6-phosphate [3]): 0.00098 ± 0.0002 s⁻¹

U31C C34U C71U
self-cleavage kobs at 160 uM GlcN6P (glucosamine-6-phosphate [1]): < 1e-05 s⁻¹ | self-cleavage kobs at 640 uM GlcN6P (glucosamine-6-phosphate [2]): < 1e-05 s⁻¹ | self-cleavage kobs at 2500 uM GlcN6P (glucosamine-6-phosphate [3]): < 1e-05 s⁻¹

C10G G32U U69G
self-cleavage kobs at 160 uM GlcN6P (glucosamine-6-phosphate [1]): < 1e-05 s⁻¹

C34G G37A
self-cleavage kobs at 160 uM GlcN6P (glucosamine-6-phosphate [1]): < 1e-05 s⁻¹ | self-cleavage kobs at 640 uM GlcN6P (glucosamine-6-phosphate [2]): < 1e-05 s⁻¹

G38U A42U G62U
self-cleavage kobs at 160 uM GlcN6P (glucosamine-6-phosphate [1]): < 1e-05 s⁻¹ | self-cleavage kobs at 640 uM GlcN6P (glucosamine-6-phosphate [2]): < 1e-05 s⁻¹ | self-cleavage kobs at 2500 uM GlcN6P (glucosamine-6-phosphate [3]): < 1e-05 s⁻¹

C8G A14U G66U
self-cleavage kobs at 160 uM GlcN6P (glucosamine-6-phosphate [1]): < 1e-05 s⁻¹ | self-cleavage kobs at 640 uM GlcN6P (glucosamine-6-phosphate [2]): < 1e-05 s⁻¹

A52C G59A
self-cleavage kobs at 160 uM GlcN6P (glucosamine-6-phosphate [1]): < 1e-05 s⁻¹ | self-cleavage kobs at 640 uM GlcN6P (glucosamine-6-phosphate [2]): < 1e-05 s⁻¹ | self-cleavage kobs at 2500 uM GlcN6P (glucosamine-6-phosphate [3]): < 1e-05 s⁻¹ | self-cleavage kobs at 10000 uM GlcN6P (glucosamine-6-phosphate [4]): < 1e-05 s⁻¹

U49A G62A
self-cleavage kobs at 160 uM GlcN6P (glucosamine-6-phosphate [1]): < 1e-05 s⁻¹ | self-cleavage kobs at 640 uM GlcN6P (glucosamine-6-phosphate [2]): < 1e-05 s⁻¹

A36U U45C
self-cleavage kobs at 160 uM GlcN6P (glucosamine-6-phosphate [1]): < 1e-05 s⁻¹ | self-cleavage kobs at 640 uM GlcN6P (glucosamine-6-phosphate [2]): < 1e-05 s⁻¹ | self-cleavage kobs at 2500 uM GlcN6P (glucosamine-6-phosphate [3]): < 1e-05 s⁻¹ | self-cleavage kobs at 10000 uM GlcN6P (glucosamine-6-phosphate [4]): < 1e-05 s⁻¹

G66C C68G
self-cleavage kobs at 160 uM GlcN6P (glucosamine-6-phosphate [1]): 0.000523 ± 0.00015 s⁻¹

A12U C34U A36U U55G
self-cleavage kobs at 160 uM GlcN6P (glucosamine-6-phosphate [1]): < 1e-05 s⁻¹ | self-cleavage kobs at 640 uM GlcN6P (glucosamine-6-phosphate [2]): < 1e-05 s⁻¹ | self-cleavage kobs at 10000 uM GlcN6P (glucosamine-6-phosphate [4]): < 1e-05 s⁻¹

G13C C58G
self-cleavage kobs at 160 uM GlcN6P (glucosamine-6-phosphate [1]): < 1e-05 s⁻¹

C34U C70G
self-cleavage kobs at 160 uM GlcN6P (glucosamine-6-phosphate [1]): 0.000827 ± 0.0004 s⁻¹
